Reference: the DeepSol protein solubility set

experiment: soluble on expression in E. coli; label from the status in PepcDB or PDB records

Question: With “MSLEVYFSGTIERIIFENPSNFYRILLLEIDDTDAEDFDDFEIIVTGTMADVIEGEDYTFWGQIVQHSKYGEQLQISRYDRAKPTSKGLVKYFSSSHFKGIGLKTAQKIVDTYGENTIDEILQHPEKLEGIAGLSAKNREAFVSTLRLNYGTEMILAKLANYGIPNKLAFQIQDFYKEETLDVVENYPYQLVEDIKGLGFTIADQLAEELGIESQAPERFRAGLVHSLFQACMETGDTYVEARDLLEQTLTLLESSRPVELDPSQVAQELSYLIEEDKVQQIDTKIFDNSLFFAEEGIRSHLVRILEKGKQKSHDLETIQKHITTVEQELGIEYDNIQKQAICDAIQNKVFILTGGPGTGKTTVINGIIAVYALLEGLDFRKKSNLPILLAAPTGRAARRMNELTGLPSATIHRHLGMTGDDDTSHLEDYLDADFIIVDEFSMVDTWLANQLFSNISSNSKILIVGDSDQLPSVSPGQVLADLLHIPLIPQTRLEKIYRQSKESTIVTLASQIRQGILPADFTQKKADRSYFEIASGHIPATIEKILGAALRNGIPARDIQVLAPMYRGTAGIDAINQLMQDLLNPPQKDQLSFEAPQCHYRKRDRVIHLVNDAEINVFNGDLGAITDLIPGKYTESKQDEIVIDFDGNEVSYPRNEWYKIRLAYAMSIHKSQGSEFPVVILPITSASRRMLERNLIYTAITRAKSKLILLGELQAFDYATQHIGTARKTYLIERFSDLLENVEEKQQAVSETVTSSASEQSYILTEENWDRIPAMIGITDTDLKEIFGKEGHHHHHH” as the sequence, how does the “soluble on expression in E. coli” value read?
Answer: soluble

Question: With “MKVILVNGSPHKDGCTFTALEEVAKALNEEGIDTEFFHLGTKPLNGCIACGHCRKHQRCVFPDSVNEFLDLAQEADGFIFGSPVHYAAAGGAITSFLDRVFYTDSGSGKQAFYLKPAAAVVSARRAGTTASLDQLNRYFTIKEMPIISSKYWNMVHGNTPEEVRKDEEGLQIMRTLGRNMAWFLKCKEAGIRAGIPFPSQEEGLRTNFIRLEHHHHHH” as the sequence, how does the “soluble on expression in E. coli” value read?
Answer: soluble

Question: For “SESDSEMVPFPQLPMPIENNYRACTIPYRFPSDDPKKATPNEISWINVFANSIPSFKKRAESDITVPDAPARAEKFAERYAGILEDLKKDPESHGGPPDGILLCRLREQVLRELGFRDIFKKVKDEENAKAISLFPQVVSLSDAIEDDGKRLENLVRGIFAGNIFDLGSAQLAEVFSRDGMSFLASCQNLVPRPWVIDDLENFQAKWINKSWKKAVIFVDNSGADIILGILPFARELLRRGAQVVLAANELPSINDITCTELTEILSQLKDENGQLLGVDTSKLLIANSGNDLPVIDLSRVSQELAYLSSDADLVIVEGMGRGIETNLYAQFKCDSLKIGMVKHLEVAEFLGGRLYDCVFKFNEVQS”, which “soluble on expression in E. coli” value is on record?
Answer: soluble

Question: Which “soluble on expression in E. coli” value does the source give for “GLIDSHVHPVVGDYTPRQQQLHWIDSTLHGGVTTLISAGEVHMPGRPKDIVGLKAMAIAAQRWYENFRPSGVKVMAGAPVIEHGMVEQDFKELADAGVKLLGEVGLGTVKDGKTARQMVDWARKYGIQSTIHTGGPSIPGSGLIDADMVLETGTDVIGHINGGHSALPDDQIMCLCESCTAGLEIVHNGNERAALLTLNTARELKQMDRIILGTDGPAGSGVQPLGILRMVAMLSALGNVPAEIAFCFANGNTARQRELDTGLLERGYAADFVLMDQAQHAPGKTILESVQLGNLPGVGMTVIDGVVCSERSRNTPPATRLPRIVS” here?
Answer: not soluble

Question: With “MSDEKKKKRGFFRYSVLTTSSFSSWRRSSTSGSISQSSRTTSKTTTSSSVTSSNPINAPPPTATSSSSVLPSTSSEPPPPASAPPRISIYHKMVPSKSKFRQCDVCEHIFIFDFVRKQHLDDVYACNVCGIRVHKGCLDRVKNDCKITTQYMGGILENAVIQSNKKQWEKPTTASISKSLTTSPTCSTSTTMSPAGVEKNVHKTRKLISMTTSTLDDVTTFNSEINEEMDEETVLMTWEDVTIKLTDVDVMTKIGDGRFGSVYFGGYHGNAAVRFVNMNYLSQEDRRADVFATEIVSAYKNSRHDHIALFYGYVSDPVTNTYAIVTNFYQHNTLYHRIHEQLSEDFDQSWTFQISLQICQAMSYLHKKKILHRDLRTKNILLDNPNRVVVTDFALMKLERLENPRRNCTLLIPNHWIDYLSPEIAGNLMIDWRGDVLFQHELPFSQESDVYSFGTIFFELLLRRMPTGCDSWDQKLYAKMCGQKAALQRLDAQLQKIDGKLHELLLECWSSQPEKRPSFQQIVKRITVQMPRKESNKQKRRSTAHENPLF” as the sequence, how does the “soluble on expression in E. coli” value read?
Answer: not soluble

Question: For “MGSDKIHHHHHHMKILHLGKFYPLKGGMEKAILDIVRGISMQGVTCDLLCVSTEKAGVFPLNEHAHIYAMPSVCNVNSVRISPLLIPTLRKLCPNYDIIHIHCPNPMANLALYLSGYRGKVVLHWHSDILKQKYALKLYKPLQTWLIRRADVIIGTSPVYLENSPFLRGMEHKFRIVPLGCEAIVPSADRVSDIRKQYKGKRIIFALGRLIAYKGFRFLIEAARYLDDGYVVLIGGTGPLYNKLLKQINEENLQGKVCLLGYVTDDEVAQYYGACDVFCLSSVWKTEAFGLVQIEAMSCGKPVVATNIEGSGVPWVNRNGYSGLNVEPENPEALAKAIMKITSSEEAYRTYSRQARAHYNKMFVKERMLAGYEQVYASLYHEK”, which “soluble on expression in E. coli” value is on record?
Answer: not soluble

Question: With “MFTQLALLSVLAVFVAQATMNLPSQEQYNAELKSAGMSQAGIDGLNVLSQKFVSQYPVVQANKEAADKFLAEYTEEAQNYVKSMSPEDQKIYAESLKKYGLA” as the sequence, how does the “soluble on expression in E. coli” value read?
Answer: not soluble

Question: With “MDMNSFSPMMPTSPLSMINQIKFEDEPDLKDLFITVDEPESHVTTIETFITYRIITKTTRGEFDSSEFEVRRRYQDFLWLKGKLEEAHPTLIIPPLPEKFIVKGMVERFNDDFIETRRKALHKFLNRIADHPTLTFNEDFKIFLTAQAWELSSHKKQGPGLLSRMGQTVRAVASSMRGVKNRPEEFMEMNNFIELFSQRINLIDKISQRIYKEEREYFDEMKEYGPIHILWSASEEDLVDTLKDVASCIDRCCKATEKRMSGLSEALLPVVHEYVLYSEMLMGVMKRRDQIQAELDSKVEVLTYKKADTDLLPEEIGKLEDKVECANNALKADWERWKQNMQNDIKLAFTDMAEENIHYYEQCLATWESFLTSQTNLHLEEASEDKP” as the sequence, how does the “soluble on expression in E. coli” value read?
Answer: soluble

Question: For “AHHHHHHGSGDNRKVRVVVGGVFDILHVGHVHFLKMAKELGDELIVIVAHDETVKRRKGRPPINPAEDRAELLKSIRYVDDVVIGEPGEISIDLIKRLKPDVIALGPDQDFSCEELKKRLRKEGINAEVIRLPYLYKSDRAKTSKIIQRIIETFCE”, which “soluble on expression in E. coli” value is on record?
Answer: not soluble

Question: Which “soluble on expression in E. coli” value does the source give for “GSHMKNSVSVDLPGSMKVLVSKSSNADGKYDLIATVDALELSGTSDKNNGSGVLEGVKADASKVKLTISDDLGQTTLEVFKSDGSTLVSKKVTSKDKSSTEEKFNEKGELSEKKITRADKSSTEEKFNEKGELSEKKITRADKSSTEEKFNEKGELSEKKITRADKSSTEEKFNEKGEVSEKIITRADGTRLEYTGIKSDGSGKAKEVLKGYVLEGTLTAEKTTLVVKEGTVTLSKNISKSGEVSVELNDTDSSAATKKTAAWNSGTSTLTITVNSKKTKDLVFTSSNTITVQQYDSNGTSLEGSAVEITKLDEIKNALK” here?
Answer: soluble

Question: With “MAQKPLRLLACGDVEGKFDILFNRVQAIQKKSGNFDLLLCVGNFFGSTQDAEWEEYKTGIKKVPIQTYVLGANNQETVKYFQDADGCELAENITYLGRKGIFTGSSGLQIVYLSGTESLNEPVPGYSFSPKDVSSLRMMLCTTSQFKGVDILLTSPWPKCVGNFGNSSGEVDTKKCGSALVSSLATGLKPRYHFAALEKTYYERLPYRNHIILQENAQHATRFIALANVGNPEKKKYLYAFSIVPMKLMDAAELVKQPPDVTENPYRKSGQEASIGKQILAPVEESACQFFFDLNEKQGRKRSSTGRDSKSSPHPKQPRKPPQPPGPCWFCLASPEVEKHLVVNIGTHCYLALAKGGLSDDHVLILPIGHYQSVVELSAEVVEEVEKYKATLRRFFKSRGKWCVVFERNYKSHHLQLQVIPVPISCSTTDDIKDAFITQAQEQQIELLEIPEHSDIKQIAQPGAAYFYVELDTGEKLFHRIKKNFPLQFGREVLASEAILNVPDKSDWRQCQISKEDEETLARRFRKDFEPYDFTLDD” as the sequence, how does the “soluble on expression in E. coli” value read?
Answer: soluble

Question: Which “soluble on expression in E. coli” value does the source give for “LSSPQNILVCVTQQITCERLILKAAELRNELKGELFVIHVAKNEWNFLDNIKEGEALEYLFKISKSVGANLSVLKSDDIVQTIVNFAKENKITHIVMGESPNDHKENNFYNELKRLLSNVEILVIPQAGI” here?
Answer: not soluble
